± gives the half width of the 95% confidence interval.
Assays:
[1] = folding stability dG unfold (combined trypsin and chymotrypsin); higher = more stable
How it was run: (§1)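 Designed mini-proteins with no cysteine and under 80 residues were kept only if AlphaFold2 dimer inter-PAE was above 15. In a PA-tagged cDNA display construct, they were digested with trypsin and chymotrypsin and then sequenced. K50 was inferred by Bayesian fitting of counts, and unfolding free energy was derived per protease or combined against a sequence-predicted unfolded-state K50 and a shared folded-state K50.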

[2] = folding stability dG unfold from trypsin proteolysis; higher = more stable
How it was run: as §1

[3] = folding stability dG unfold from chymotrypsin proteolysis; higher = more stable
How it was run: as §1

| Sequence | folding stability dG unfold [1] | folding stability dG unfold [2] | folding stability dG unfold [3] |
| --- | --- | --- | --- |
| SAETVVNVTISRPPPSKYSVTITIQPPTSSTSLPTTTDLPPGAYEELLAALQKAHPNLTFSTVTETSDGSAG [r14_969_JUSTAS] | 0.828 ± 0.12 kcal/mol | 0.614 ± 0.03 kcal/mol | 0.758 ± 0.15 kcal/mol |
| SAEVEVELVEVNGKLFLVMKVKEKDENGKEREYLVVVEVEFDPETKKLTVKVYVFPSKEEAEEALKKLLSAG [r14_500_TrROS_Hall] | > 6 kcal/mol | 3.92 ± 0.52 kcal/mol | 5.26 ± 0.45 kcal/mol |
| SAEVRARLEYDPVSGDLVLEVERPLPNGDVIRARVDLVNPVLRVEHLPVRDGVPLPRETELDLPADALVSAG [r14_64_TrMRF] | 0.766 ± 0.067 kcal/mol | 0.394 ± 0.084 kcal/mol | 0.855 ± 0.039 kcal/mol |
| SAEVTSTFDPSTGILTVTVKLEDPETGKPIPAEEVAAEVEKEYPNSTILSIEPDPEGYVTITVKVPPELVSA [r9_87_JUSTAS] | 2.79 ± 0.039 kcal/mol | 1.81 ± 0.075 kcal/mol | 3.16 ± 0.049 kcal/mol |
| SAFKIDPNGHIRIMISQDDLKQMSIEEINNLVKELAKAFPPPMKVEIHIMPPPPKPKPPPKRDDDGKPKSAG [r14_312_TrROS] | 1.1 ± 0.18 kcal/mol | 1.54 ± 0.053 kcal/mol | 0.66 ± 0.13 kcal/mol |
| SAFKILPDGTILIDIGEDEAKKLSIEEIEALVKEIEKLLPKDYKVEIHIIPKKPIPKPPLIPGKDNLIGSAG [r14_312_TrMRF] | 1.91 ± 0.071 kcal/mol | 1.94 ± 0.063 kcal/mol | 1.97 ± 0.041 kcal/mol |
| SAFRDLAKEIARDAGYPVELVEIEFTNDTWTFMIQMKNDGEPYYFRIEIEWPNPNPGDWRIEIDDVQPPSAG [r14_387_TrROS] | 2.78 ± 0.28 kcal/mol | 1.94 ± 0.14 kcal/mol | 3.09 ± 0.094 kcal/mol |
| SAGAAPVGARLVKVEPLPGDGPFVLVEVTPPDGKPGFILVPWEFFESGYLKNATAADIAKRFPFAKPASAGG [r19_74_TrMRF] | 1.49 ± 0.056 kcal/mol | 0.513 ± 0.019 kcal/mol | 1.85 ± 0.028 kcal/mol |
| SAGAATINPNPLTLEIESPDGTKYTVSPEEVQKIKDELEAKGKPPTLEEILNEIKKRFPNWRVSYSPESAGG [r19_46_JUSTAS] | 3.44 ± 0.058 kcal/mol | 3.06 ± 0.076 kcal/mol | 3.59 ± 0.04 kcal/mol |
| SAGADSVTYDPETNLVVVYRRVGDDVEVLVLEPVPLPVVVVVPVEDAVTRNPELRPLLEQNPDFYLVFPSAG [r5_957_TrMRF] | 2.13 ± 0.051 kcal/mol | 1.88 ± 0.036 kcal/mol | 2.248 ± 0.022 kcal/mol |
| SAGAKIVSVEKVNGEKKITIKVKKEGDEIVIVFPKKNAKIEKKKNGTIEITIKEGETVIIVLKVKKKKSAGG [r19_227_TrROS_Hall] | 2.99 ± 0.22 kcal/mol | 1.82 ± 0.051 kcal/mol | 3.29 ± 0.082 kcal/mol |
| SAGALPPDQVVPIPVLVRLSEDDPELREAIERGEVVEFELPGPLRLLAEFEPLPEDLVLVTLYLEVPEGSAG [r5_223_TrMRF] | 1.98 ± 0.17 kcal/mol | 1.28 ± 0.052 kcal/mol | 2.3 ± 0.062 kcal/mol |
| SAGAMKITMPEDISVSPSGGATVTITVEFPDKDAVYTVPVTFPDVKSVEEVLARAEEVGKEFAEELKKKSAG [r5_940_JUSTAS] | 0.73 ± 0.099 kcal/mol | 0.484 ± 0.046 kcal/mol | 0.872 ± 0.063 kcal/mol |
| SAGAQPIKLKLVDPNGWEIDDIEIEYSPNGMYMIGIENPDNGRPMHIQYNPDDGKIEIRWPNGKLFEIESAG [r5_809_TrROS] | 0.841 ± 0.12 kcal/mol | 0.713 ± 0.041 kcal/mol | 0.902 ± 0.13 kcal/mol |
| SAGASVSRPVSADEEFSVTVPPEPVTLEVTVYRPDGSVLSSRTIPVGPNTTVTLNVPDPDWSVSFSPVASAG [r5_797_JUSTAS] | 0.232 ± 0.2 kcal/mol | -0.0205 ± 0.2 kcal/mol | 0.082 ± 0.18 kcal/mol |
| SAGATFKPGQTITVTVTVTVTVTNADGSTTTVTATVTVTLTVEPAPPLTFKTAEEAEAARKAGLSPEELSAG [r5_624_TrROS_Hall] | 1.84 ± 0.23 kcal/mol | 1.35 ± 0.07 kcal/mol | 1.9 ± 0.076 kcal/mol |
| SAGATLLEERELPDGSRVEVYREPDKLIVRVFSPDREVETRVFPLPPEPPLPVVPVVVDPARGRFVRLSAGG [r19_254_JUSTAS] | -0.106 ± 0.077 kcal/mol | -0.621 ± 0.19 kcal/mol | -0.00636 ± 0.11 kcal/mol |
| SAGDDWIPIEEIARRIARKHGYPVKSVEVPIYKTPDYYYVTVHIKYENPDDGKKQEFEDQFWIPKDEIKSAG [r5_421_TrROS] | 0.886 ± 0.17 kcal/mol | 0.968 ± 0.065 kcal/mol | 0.97 ± 0.054 kcal/mol |

From the supplement of paper PMC12764529
